{"source": "patent US10894036B2", "about": "“Use of marizomib for the treatment of central nervous system (CNS) cancers” (Celgene International II Sàrl, priority 2016, dated 2021)", "experiment": "Phase 1/2 MRZ + BEV and MRZ monotherapy in recurrent G4 MG: adverse events, DLT", "settings": "MRZ+BEV", "experimental": "The clinical trial was a Phase 1, dose-escalation (3+3 design) followed by dose-expansion at recommended Phase 2 Dose (RP2D).\nThe drugs were infused on 28-Day Cycles. Tumor response is assessed every other cycle by RANO criteria.\nThe safety data will be presented in individual listings and summary tables, including frequency tables for adverse events and frequency and shift tables for laboratory variables. The safety population will be all subjects who received at least one dose of either study drug in Phase 1 or MRZ in Phase 2.", "data": [{"substance": "bevacizumab [reference compound]", "values": [{"measurement": "Ear Infection: # pts, related to BEV", "setting": "12 Sep. 2016", "value": 0}, {"measurement": "Epistaxis: # pts, related to BEV", "setting": "12 Sep. 2016", "value": 7}, {"measurement": "Falls: # pts, related to BEV", "setting": "12 Sep. 2016", "value": 0}, {"measurement": "Fatigue: # pts, related to BEV", "setting": "12 Sep. 2016", "value": 0}, {"measurement": "Fracture of Femur: # pts, related to BEV", "setting": "12 Sep. 2016", "value": 0}, {"measurement": "Hallucination: # pts, related to BEV", "setting": "12 Sep. 2016", "value": 0}, {"measurement": "Headache: # pts, related to BEV", "setting": "12 Sep. 2016", "value": 1}, {"measurement": "Hemiparesis: # pts, related to BEV", "setting": "12 Sep. 2016", "value": 0}, {"measurement": "Hyperglycemia: # pts, related to BEV", "setting": "12 Sep. 2016", "value": 0}, {"measurement": "Hypertension: # pts, related to BEV", "setting": "12 Sep. 2016", "value": 13}, {"measurement": "Hypokalemia: # pts, related to BEV", "setting": "12 Sep. 2016", "value": 0}, {"measurement": "Hyponatremia: # pts, related to BEV", "setting": "12 Sep. 2016", "value": 0}, {"measurement": "Hypotension: # pts, related to BEV", "setting": "12 Sep. 2016", "value": 0}, {"measurement": "Infusion Site Pain: # pts, related to BEV", "setting": "12 Sep. 2016", "value": 0}, {"measurement": "Insomnia: # pts, related to BEV", "setting": "12 Sep. 2016", "value": 1}, {"measurement": "Lymphocyte Count Decreased: # pts, related to BEV", "setting": "12 Sep. 2016", "value": 0}, {"measurement": "Muscular Weakness: # pts, related to BEV", "setting": "12 Sep. 2016", "value": 0}, {"measurement": "Nausea: # pts, related to BEV", "setting": "12 Sep. 2016", "value": 0}, {"measurement": "Optic Nerve Disorder: # pts, related to BEV", "setting": "12 Sep. 2016", "value": 1}, {"measurement": "Pyramidal Tract Syndrome: # pts, related to BEV", "setting": "12 Sep. 2016", "value": 0}, {"measurement": "Tumor Metastasis: # pts, related to BEV", "setting": "12 Sep. 2016", "value": 0}, {"measurement": "Vision Blurred: # pts, related to BEV", "setting": "12 Sep. 2016", "value": 0}, {"measurement": "Vomiting: # pts, related to BEV", "setting": "12 Sep. 2016", "value": 0}, {"measurement": "Anaemia: # events related to BEV", "setting": "17 May 2016", "value": 0}, {"measurement": "Aphasia: # events related to BEV", "setting": "17 May 2016", "value": 0}, {"measurement": "Appendicitis Perforated: # events related to BEV", "setting": "17 May 2016", "value": 0}, {"measurement": "Asthenia: # events related to BEV", "setting": "17 May 2016", "value": 0}, {"measurement": "Ataxia: # events related to BEV", "setting": "17 May 2016", "value": 0}, {"measurement": "Confusional State: # events related to BEV", "setting": "17 May 2016", "value": 0}, {"measurement": "Constipation: # events related to BEV", "setting": "17 May 2016", "value": 0}, {"measurement": "Convulsion: # events related to BEV", "setting": "17 May 2016", "value": 0}, {"measurement": "Delusion: # events related to BEV", "setting": "17 May 2016", "value": 0}, {"measurement": "Diarrhoea: # events related to BEV", "setting": "17 May 2016", "value": 0}, {"measurement": "Dizziness: # events related to BEV", "setting": "17 May 2016", "value": 0}, {"measurement": "Dysarthria: # events related to BEV", "setting": "17 May 2016", "value": 0}, {"measurement": "Dysphagia: # events related to BEV", "setting": "17 May 2016", "value": 0}, {"measurement": "Dysphonia: # events related to BEV", "setting": "17 May 2016", "value": 10}, {"measurement": "Dyspnoea: # events related to BEV", "setting": "17 May 2016", "value": 0}, {"measurement": "Ear Infection: # events related to BEV", "setting": "17 May 2016", "value": 0}, {"measurement": "Embolism: # events related to BEV", "setting": "17 May 2016", "value": 1}, {"measurement": "Epistaxis: # events related to BEV", "setting": "17 May 2016", "value": 8}, {"measurement": "Fatigue: # events related to BEV", "setting": "17 May 2016", "value": 0}, {"measurement": "Hallucination: # events related to BEV", "setting": "17 May 2016", "value": 0}, {"measurement": "Hemiparesis: # events related to BEV", "setting": "17 May 2016", "value": 0}, {"measurement": "Hyperglycemia: # events related to BEV", "setting": "17 May 2016", "value": 0}, {"measurement": "Hypokalemia: # events related to BEV", "setting": "17 May 2016", "value": 0}, {"measurement": "Hypotension: # events related to BEV", "setting": "17 May 2016", "value": 0}, {"measurement": "Insomnia: # events related to BEV", "setting": "17 May 2016", "value": 0}, {"measurement": "Lymphocyte Count Decreased: # events related to BEV", "setting": "17 May 2016", "value": 0}, {"measurement": "Muscular Weakness: # events related to BEV", "setting": "17 May 2016", "value": 0}, {"measurement": "Nausea: # events related to BEV", "setting": "17 May 2016", "value": 0}, {"measurement": "Pyramidal Tract Syndrome: # events related to BEV", "setting": "17 May 2016", "value": 0}, {"measurement": "Vomiting: # events related to BEV", "setting": "17 May 2016", "value": 0}, {"measurement": "Anaemia: # patients, AE related to labelled agent (BEV, MRZ, Both)", "setting": "36 pts, as of 12 Sep. 2016", "value": 0}, {"measurement": "Anxiety: # patients, AE related to labelled agent (BEV, MRZ, Both)", "setting": "36 pts, as of 12 Sep. 2016", "value": 0}, {"measurement": "Aphasia: # patients, AE related to labelled agent (BEV, MRZ, Both)", "setting": "36 pts, as of 12 Sep. 2016", "value": 0}, {"measurement": "Appendicitis Perforated: # patients, AE related to labelled agent (BEV, MRZ, Both)", "setting": "36 pts, as of 12 Sep. 2016", "value": 0}, {"measurement": "Asthenia: # patients, AE related to labelled agent (BEV, MRZ, Both)", "setting": "36 pts, as of 12 Sep. 2016", "value": 0}, {"measurement": "Ataxia: # patients, AE related to labelled agent (BEV, MRZ, Both)", "setting": "36 pts, as of 12 Sep. 2016", "value": 0}, {"measurement": "Confusional State: # patients, AE related to labelled agent (BEV, MRZ, Both)", "setting": "36 pts, as of 12 Sep. 2016", "value": 0}, {"measurement": "Constipation: # patients, AE related to labelled agent (BEV, MRZ, Both)", "setting": "36 pts, as of 12 Sep. 2016", "value": 0}, {"measurement": "Convulsion: # patients, AE related to labelled agent (BEV, MRZ, Both)", "setting": "36 pts, as of 12 Sep. 2016", "value": 0}, {"measurement": "Delusion: # patients, AE related to labelled agent (BEV, MRZ, Both)", "setting": "36 pts, as of 12 Sep. 2016", "value": 0}, {"measurement": "Depressed Level of Consciousness: # patients, AE related to labelled agent (BEV, MRZ, Both)", "setting": "36 pts, as of 12 Sep. 2016", "value": 0}, {"measurement": "Diarrhoea: # patients, AE related to labelled agent (BEV, MRZ, Both)", "setting": "36 pts, as of 12 Sep. 2016", "value": 0}, {"measurement": "Dizziness: # patients, AE related to labelled agent (BEV, MRZ, Both)", "setting": "36 pts, as of 12 Sep. 2016", "value": 0}, {"measurement": "Dysarthria: # patients, AE related to labelled agent (BEV, MRZ, Both)", "setting": "36 pts, as of 12 Sep. 2016", "value": 0}, {"measurement": "Dysphagia: # patients, AE related to labelled agent (BEV, MRZ, Both)", "setting": "36 pts, as of 12 Sep. 2016", "value": 0}, {"measurement": "Dysphonia: # patients, AE related to labelled agent (BEV, MRZ, Both)", "setting": "36 pts, as of 12 Sep. 2016", "value": 10}, {"measurement": "Dyspnoea: # patients, AE related to labelled agent (BEV, MRZ, Both)", "setting": "36 pts, as of 12 Sep. 2016", "value": 0}, {"measurement": "Ear Infection: # patients, AE related to labelled agent (BEV, MRZ, Both)", "setting": "36 pts, as of 12 Sep. 2016", "value": 0}, {"measurement": "Epistaxis: # patients, AE related to labelled agent (BEV, MRZ, Both)", "setting": "36 pts, as of 12 Sep. 2016", "value": 7}, {"measurement": "Falls: # patients, AE related to labelled agent (BEV, MRZ, Both)", "setting": "36 pts, as of 12 Sep. 2016", "value": 0}, {"measurement": "Fatigue: # patients, AE related to labelled agent (BEV, MRZ, Both)", "setting": "36 pts, as of 12 Sep. 2016", "value": 0}, {"measurement": "Fracture of Femur: # patients, AE related to labelled agent (BEV, MRZ, Both)", "setting": "36 pts, as of 12 Sep. 2016", "value": 0}, {"measurement": "Hallucination: # patients, AE related to labelled agent (BEV, MRZ, Both)", "setting": "36 pts, as of 12 Sep. 2016", "value": 0}, {"measurement": "Headache: # patients, AE related to labelled agent (BEV, MRZ, Both)", "setting": "36 pts, as of 12 Sep. 2016", "value": 1}, {"measurement": "Hemiparesis: # patients, AE related to labelled agent (BEV, MRZ, Both)", "setting": "36 pts, as of 12 Sep. 2016", "value": 0}, {"measurement": "Hyperglycemia: # patients, AE related to labelled agent (BEV, MRZ, Both)", "setting": "36 pts, as of 12 Sep. 2016", "value": 0}, {"measurement": "Hypertension: # patients, AE related to labelled agent (BEV, MRZ, Both)", "setting": "36 pts, as of 12 Sep. 2016", "value": 13}, {"measurement": "Hypokalemia: # patients, AE related to labelled agent (BEV, MRZ, Both)", "setting": "36 pts, as of 12 Sep. 2016", "value": 0}, {"measurement": "Hyponatremia: # patients, AE related to labelled agent (BEV, MRZ, Both)", "setting": "36 pts, as of 12 Sep. 2016", "value": 0}, {"measurement": "Hypotension: # patients, AE related to labelled agent (BEV, MRZ, Both)", "setting": "36 pts, as of 12 Sep. 2016", "value": 0}, {"measurement": "Infusion Site Pain: # patients, AE related to labelled agent (BEV, MRZ, Both)", "setting": "36 pts, as of 12 Sep. 2016", "value": 0}, {"measurement": "Insomnia: # patients, AE related to labelled agent (BEV, MRZ, Both)", "setting": "36 pts, as of 12 Sep. 2016", "value": 1}, {"measurement": "Lymphocyte Count Decreased: # patients, AE related to labelled agent (BEV, MRZ, Both)", "setting": "36 pts, as of 12 Sep. 2016", "value": 0}, {"measurement": "Muscular Weakness: # patients, AE related to labelled agent (BEV, MRZ, Both)", "setting": "36 pts, as of 12 Sep. 2016", "value": 0}, {"measurement": "Nausea: # patients, AE related to labelled agent (BEV, MRZ, Both)", "setting": "36 pts, as of 12 Sep. 2016", "value": 0}, {"measurement": "Optic Nerve Disorder: # patients, AE related to labelled agent (BEV, MRZ, Both)", "setting": "36 pts, as of 12 Sep. 2016", "value": 1}, {"measurement": "Pyramidal Tract Syndrome: # patients, AE related to labelled agent (BEV, MRZ, Both)", "setting": "36 pts, as of 12 Sep. 2016", "value": 0}, {"measurement": "Tumor Metastasis: # patients, AE related to labelled agent (BEV, MRZ, Both)", "setting": "36 pts, as of 12 Sep. 2016", "value": 0}, {"measurement": "Vision Blurred: # patients, AE related to labelled agent (BEV, MRZ, Both)", "setting": "36 pts, as of 12 Sep. 2016", "value": 0}, {"measurement": "Vomiting: # patients, AE related to labelled agent (BEV, MRZ, Both)", "setting": "36 pts, as of 12 Sep. 2016", "value": 0}]}]}
